In the RNAGym collection of RNA variant scans (doi:10.7554/elife.90254) one finds self-cleavage data, which are given here for 167 variants.

The labels stand for the following.
B1: LINE1-mini (parent)
chain: GGCAGAGCUCAACACAGCGUGGCAAAGUGGCUGUGGCUAGACUGCC

The data set covers variants of B1. Briefly: self-cleavage, relative activity (ratio to wild type); higher = more cleavage; in vitro, sequencing; the parent is a self-cleaving ribozyme.
Take A25C C31U: the self-cleavage amounted to 0.12.

Regarding A25C C31G, the self-cleavage was 0.06. The figure for A25C C31A is 0.09; for A24U A39G it is 0.14.

In the case of A24U A39C, the self-cleavage worked out at 0.23.

Take A24U A39U: the self-cleavage came out at 1.99.

A24U: the self-cleavage was 1.42.

Regarding A24G, the self-cleavage was 1.1. The figure for A25C A39G is 0.07; for A25C A39C it is 0.08; for A25C A39U it is 0.52. As to A24G G44A, the self-cleavage was 1.

For the variant A24G G44U, the self-cleavage amounted to 0.15.

In the case of A24G G44C, the self-cleavage turned out to be 0.66. The figure for A24C G40U is 0.11; for A24C G40C it is 0.05; for A25C C37G it is 0.06. Regarding A25C C37U, the self-cleavage was 0.06.

With A25C C37A, the self-cleavage stood at 0.11. The figure for A24U G29A is 1.72. The value for A24U G29C was 0.58. The value for A24U G29U was 1.84. On to A24U G30A, for which the self-cleavage amounted to 0.97. The value for A24U G30U was 1.46; that for A24U G30C was 0.62; that for A24U U38C was 1.36. The value for A24U U38G was 0.02; that for A24U U38A was 0.34. The value for A24U G27A was 0.92; that for A24U G27C was 0.61.

Turning to A24U G27U, the self-cleavage was 0.8. The value for A24G U32A was 0.14; that for A24G U32G was 0.14; that for A24G U32C was 0.24.

As for A24U C37U, the self-cleavage turned out to be 0.07. The value for A24U C37A was 0.05; that for A24U C37G was 0.05. The figure for A25C A41G is 0.28. The value for A25C A41U was 0.52; that for A25C A41C was 0.04; that for A24U U28A was 1.25. As for A24U U28C, the self-cleavage came to 0.69.

Regarding A24U U28G, the self-cleavage stood at 0.39. For the variant A24G A25U, the self-cleavage came out at 1.3. As for A24G A25G, the self-cleavage is 0.75. The figure for A24U U32C is 0.2; for A24U U32G it is 0.12; for A24U U32A it is 0.07. The value for A24C U32G was 0.13; that for A24C U32A was 0.08.

Take A24C U32C: the self-cleavage was determined as 0.05. For the variant A24C G44C, the self-cleavage turned out to be 0.47. The value for A24C G44A was 0.18. The value for A24C G44U was 0.13; that for A24G G29U was 1.07; that for A24G G29A was 0.8. The value for A24G G29C was 0.48; that for A24G G30U was 2.49; that for A24G G30A was 1.11.

As for A24G G30C, the self-cleavage was found to be 1.12. The value for A24G C46A was 1.75. The figure for A24G C46G is 0.83. With A24G C46U, the self-cleavage is 0.93. The value for A24G C37G was 0.1. The figure for A24G C37U is 0.05. The value for A24G C37A was 0.09; that for A24U A25G was 1.28; that for A24U A25U was 1.48.

On to A24U A25C, for which the self-cleavage amounted to 1.63. In the case of A24U C31U, the self-cleavage is 0.25. With A24U C31G, the self-cleavage was determined as 0.08.

A24U C31A: the self-cleavage is 0.07. In the case of A24G C45U, the self-cleavage came to 1.23. The figure for A24G C45A is 1.47. The value for A24G C45G was 0.22; that for A24U U43A was 0.3; that for A24U U43C was 0.18. The figure for A24U U43G is 0.03.

Take A24G U28G: the self-cleavage turned out to be 0.45. The figure for A24G U28A is 0.94. Turning to A24G U28C, the self-cleavage is 0.72.

For the variant A24U G40C, the self-cleavage stood at 0.11.

Turning to A24U G40A, the self-cleavage was 0.14. The figure for A24U G40U is 0.19; for A24U U34C it is 0.09; for A24U U34G it is 0.24.

In the case of A24U U34A, the self-cleavage was determined as 0.08.

As for A24G G36U, the self-cleavage worked out at 0.1. The value for A24G G36C was 0.11; that for A24G G36A was 0.17.

A24U C42A: the self-cleavage was 0.18. The figure for A24U C42U is 0.4.

On to A24U C42G, for which the self-cleavage stood at 0.06. The value for A24U G36C was 0.11.

Consider A24U G36U, for which the self-cleavage was 0.05. Take A24U G36A: the self-cleavage turned out to be 0.22.

Take A24G U38C: the self-cleavage came out at 0.71. The figure for A24G U38A is 0.76.

With A24G U38G, the self-cleavage was determined as 0.03.

On to A24U G35C, for which the self-cleavage was 0.09. The figure for A24U G35A is 0.12; for A24U G35U it is 0.38. The value for A24G A41C was 0.04. The figure for A24G A41G is 0.6. For the variant A24G A41U, the self-cleavage is 0.67. The figure for A24G G35C is 0.17; for A24G G35U it is 0.13. The figure for A24G G35A is 0.12; for A24U G33A it is 0.05. The value for A24U G33U was 0.08; that for A24U G33C was 0.06; that for A24C U28C was 0.69. In the case of A24C U28A, the self-cleavage was 0.6. The value for A24C U28G was 0.35. The figure for A24G C31G is 0.05. The figure for A24G C31U is 0.29. In the case of A24G C31A, the self-cleavage is 0.15. Regarding A24U A26G, the self-cleavage was 0.84. On to A24U A26U, for which the self-cleavage was found to be 1.34.

Take A24C U34G: the self-cleavage stood at 0.05.

In the case of A24C U34A, the self-cleavage worked out at 0.07. Consider A24C U34C, for which the self-cleavage is 0.12. The value for A24G G33U was 0.08; that for A24G G33A was 0.07; that for A24G G33C was 0.06. The value for A24G G40A was 0.13; that for A24G G40C was 0.18.

For A24G G40U, the self-cleavage is 0.16. The figure for A24G U43C is 0.2; for A24G U43A it is 0.11; for A24G U43G it is 0.19. The figure for A24G A26C is 1.06.

With A24G A26U, the self-cleavage stood at 1.28. The figure for A24G A26G is 0.5; for A24U G44C it is 0.67. The value for A24U G44U was 0.19; that for A24U G44A was 0.44; that for A24G A39G was 0.07.

On to A24G A39C, for which the self-cleavage came to 0.27. The value for A24G A39U was 1.31; that for A24G U34A was 0.09; that for A24G U34G was 0.14. The figure for A24G U34C is 0.1. Consider A24G G27U, for which the self-cleavage turned out to be 0.57. As to A24G G27C, the self-cleavage stood at 0.9. The figure for A24G G27A is 0.98; for A24U C46U it is 1.09. The figure for A24U C46G is 1.03. Regarding A24U C46A, the self-cleavage amounted to 2.01. The value for A25C was 0.66; that for A24U C45G was 0.3; that for A24U C45U was 0.91. The value for A24U C45A was 0.31; that for A25C A26C was 1.13; that for A25C A26U was 0.68.

Take A24C U38G: the self-cleavage was 0.01. As for A24C U38C, the self-cleavage came out at 0.31.

Turning to A24C U38A, the self-cleavage turned out to be 0.3. With A24C U43C, the self-cleavage was found to be 0.1.

Turning to A24C U43G, the self-cleavage amounted to 0.37. The figure for A24C U43A is 0.02; for A24G C42G it is 0.06; for A24G C42U it is 0.41. The figure for A24G C42A is 0.19. As to A24U A41G, the self-cleavage is 0.52. A24U A41U: the self-cleavage worked out at 0.61.

As to A24U A41C, the self-cleavage was 0.07.
